Test results reported in the supplement of paper PMC7125110.
± gives the standard error. This sample holds only a part of the variants without activity.

B1: glmS ribozyme (parent)
chain: AUAAAAGCGCCAGAACUACAGAAAUGUAGUUGACGAGGAGGAGGUUUAUCGAAUUUUCGGCGGAUGCCUCCAAA

Key:
Conditions in all cases: with glucosamine-6-phosphate
glucosamine-6-phosphate [1] = variants of: B1; assay: self-cleavage kobs at 160 uM GlcN6P; higher = faster cleavage; RNA array
Summary of the method: (§1)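 Glucosamine-6-phosphate (40 μM to 10 mM) in HEPES/KCl/Mg(OAc)2 buffer was flowed over sequenced MiSeq chips, and tiles were imaged over ~14 h. Barcoded ribozyme variants there had been transcribed in situ by E. coli RNA polymerase and were tracked through a hybridised Cy3 probe at 37 °C. One- or two-exponential decay fits to per-tile medians, normalised to baseline and to non-cleaving reference variants, gave kobs. kcat and KM came from weighted Michaelis–Menten fits across concentrations.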

glucosamine-6-phosphate [2] = variants of: B1; assay: self-cleavage kobs at 640 uM GlcN6P; higher = faster cleavage; RNA array
Summary of the method: as §1

glucosamine-6-phosphate [3] = variants of: B1; assay: self-cleavage kobs at 2500 uM GlcN6P; higher = faster cleavage; RNA array
Summary of the method: as §1

glucosamine-6-phosphate [4] = variants of: B1; assay: self-cleavage kobs at 10000 uM GlcN6P; higher = faster cleavage; RNA array
Summary of the method: as §1

Variant	self-cleavage kobs at 160 uM GlcN6P (glucosamine-6-phosphate [1]) [s⁻¹]	self-cleavage kobs at 640 uM GlcN6P (glucosamine-6-phosphate [2]) [s⁻¹]	self-cleavage kobs at 2500 uM GlcN6P (glucosamine-6-phosphate [3]) [s⁻¹]	self-cleavage kobs at 10000 uM GlcN6P (glucosamine-6-phosphate [4]) [s⁻¹]
C50G U54A G63A	0.000158 ± 4.4e-05	0.000109 ± 2.9e-05	8.83e-05 ± 1.8e-05	
A6G G9U		< 1e-05	< 1e-05	< 1e-05
A6G C10U U54G		< 1e-05	< 1e-05	< 1e-05
A6G C16G U57C		< 1e-05		
C58G U69C	6.56e-05 ± 2e-05	0.000102 ± 3.1e-05	0.00011 ± 3.2e-05	
U54G A64G C68A	5.71e-05 ± 2.2e-05	6.86e-05 ± 1.5e-05	0.000107 ± 2.7e-05	
U57A G62C	< 1e-05	< 1e-05		< 1e-05
C58A G60U C61U C71A	< 1e-05		< 1e-05	
A6C G9C G41U		< 1e-05	< 1e-05	
A6U A14G G60C		< 1e-05		
A6G C10U A14G C34U U46G U57A		< 1e-05		
A6C G9A G37A G51C		< 1e-05		
C61G U65A	< 1e-05	< 1e-05	< 1e-05	< 1e-05
C50G U56A C58G	9.66e-05 ± 4.4e-05	0.00041 ± 0.00014	6.12e-05 ± 2.4e-05	
G62U G66C	< 1e-05	< 1e-05	< 1e-05	< 1e-05
A6G A12U U56A C71U		8.01e-05 ± 2.1e-05	9.57e-05 ± 2.8e-05	
A6C C10A A15G C16G G63A		< 1e-05	< 1e-05	< 1e-05
A1G A12U A64C		0.000103 ± 3.6e-05	0.000485 ± 0.00019	0.000643 ± 0.00015
C50G A64G	0.000518 ± 0.00017	0.000105 ± 2.1e-05		2.48e-05 ± 9.4e-06
A6C G41A U55C U65G		< 1e-05		
A6G A52C C58G G63A G66C		< 1e-05	< 1e-05	
A6G A12C U56A		5.6e-05 ± 1.6e-05	0.000102 ± 2.1e-05	
U2C U31C		0.000805 ± 0.00025		
A6C G43C C71U		< 1e-05		
A53G G63U	< 1e-05	< 1e-05	< 1e-05	
A6G A36U A42G G44U G60C		< 1e-05		
A6G U54A U57G		< 1e-05		

Variant	self-cleavage kobs at 160 uM GlcN6P (glucosamine-6-phosphate [1]) [s⁻¹]	self-cleavage kobs at 640 uM GlcN6P (glucosamine-6-phosphate [2]) [s⁻¹]	self-cleavage kobs at 2500 uM GlcN6P (glucosamine-6-phosphate [3]) [s⁻¹]	self-cleavage kobs at 10000 uM GlcN6P (glucosamine-6-phosphate [4]) [s⁻¹]
U55G G63C	< 1e-05		< 1e-05	
A6G A15C C34A A36U		< 1e-05	< 1e-05	
A6G C8U G37C U54C U69C		< 1e-05	< 1e-05	
A6G A52U G60U		< 1e-05	< 1e-05	
C50G G66C	0.000112 ± 3.9e-05			
C58U C68A C71G	8.62e-05 ± 2.6e-05	4.72e-05 ± 2.2e-05		
A6C A14C U31C A36G A48G		< 1e-05		< 1e-05
A6G G32U G35U G51A		< 1e-05		
A6C G59C G60U		< 1e-05	< 1e-05	
U2A G44U		0.000101 ± 1.5e-05	0.000228 ± 6.3e-05	
U57G C58G A64G	6.2e-05 ± 2.9e-05	8.58e-05 ± 3.5e-05	4.48e-05 ± 1.9e-05	
A6G U30G G38U U55G		< 1e-05	< 1e-05	
A6G C50U C61U		< 1e-05	< 1e-05	
U57C G60A	< 1e-05	< 1e-05	< 1e-05	
A6G U56C C61G		< 1e-05	< 1e-05	
A6G G37C G43A U46C		< 1e-05		
A6G A36C G37U G40A C61A U65A		< 1e-05	< 1e-05	
U54G U56A	0.000806 ± 0.00016	0.00244 ± 0.00071	0.012 ± 0.0054	0.0311 ± 0.013
A52C C58A	< 1e-05	< 1e-05		< 1e-05
A6G G9A G29A G32U G40U		< 1e-05		
G51U U56C C70G	< 1e-05			< 1e-05
A6C G13A G63A		< 1e-05	< 1e-05	
A52G A64C	< 1e-05	< 1e-05	< 1e-05	
A6C G38A A52U C70U		< 1e-05		
G62A G63U C67U	< 1e-05	< 1e-05		
A52C A64C	< 1e-05	< 1e-05		< 1e-05
G60C C61G	< 1e-05	< 1e-05	< 1e-05	
